Measurements reported in article PMC7591920 (2020).
Bridge positions count the residues as written; N and C are the ends. Ends that are not written are not given here.

T1: GST-hTEAD1(209–426) (human, UniProt P28347 209-426)
T1 chain: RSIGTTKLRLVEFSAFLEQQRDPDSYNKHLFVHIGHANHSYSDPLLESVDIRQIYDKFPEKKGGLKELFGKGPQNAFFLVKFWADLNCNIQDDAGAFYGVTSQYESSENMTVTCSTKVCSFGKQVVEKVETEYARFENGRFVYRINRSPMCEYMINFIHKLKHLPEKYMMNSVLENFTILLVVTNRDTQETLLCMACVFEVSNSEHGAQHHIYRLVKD

T2: mouse TEAD4(210–427), as purified (SPR) (mouse, UniProt Q62296 210-427)
T2 chain: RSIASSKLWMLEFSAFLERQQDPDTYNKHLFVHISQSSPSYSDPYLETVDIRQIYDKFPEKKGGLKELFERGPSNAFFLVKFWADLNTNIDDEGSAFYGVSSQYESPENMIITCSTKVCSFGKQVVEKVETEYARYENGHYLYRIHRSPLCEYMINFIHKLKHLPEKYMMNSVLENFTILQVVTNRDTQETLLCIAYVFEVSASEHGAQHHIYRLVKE

B1: macrocyclic two-helix motif peptide 4A (lactam 235–250, 5 crosslinking atoms) (peptide)
chain: SVDDHFAKALGDTWLQIKAA
modifications: lactam (positions not given here); not fully specified (bridges); also: lactam crosslink of 5 atoms, residue identities at the bridge ends not given here
B2: macrocyclic two-helix motif peptide 4B (lactam 235–250, 6 crosslinking atoms) (peptide)
chain: SVDDHFAKALGDTWLQIKAA
modifications: lactam (positions not given here); not fully specified (bridges); also: lactam crosslink of 6 atoms, residue identities at the bridge ends not given here

Biological target: T1, GST-hTEAD1(209–426)
Assay: SPR

Binder | Kd [µM]
SVEDHFAKALGDTWLQIKAA (lactam (positions not given here); not fully specified (bridges)) [macrocyclic two-helix motif peptide 4D (lactam 235–250, seven-atom crosslink)] | 1.5
B1 | 15
B2 | 14
SVDDHFAKALGDTWLQIKAA (lactam 3-18) [macrocyclic two-helix motif peptide 4C (lactam 235–250, seven-atom crosslink)] | 4.8

Biological target: T2, mouse TEAD4(210–427), as purified (SPR)
Assay: SPR

Binder | Kd [µM]
SVEDHFAKALGDTWLQIKAA (lactam (positions not given here); not fully specified (bridges)) [macrocyclic two-helix motif peptide 4D (lactam 235–250, seven-atom crosslink)] | 1
B1 | 11
B2 | 11
SVDDHFAKALGDTWLQIKAA (lactam 3-18) [macrocyclic two-helix motif peptide 4C (lactam 235–250, seven-atom crosslink)] | 3.2
